Source: patent publication US8198235B2, “Use of GILZ protein expressed in dendritic cells to modulate an antigen-specific immune response” (Assistance Publique-Hopitaux de Paris, priority 2004, dated 2012)

Assays:
Assay type in all cases: cell-based, human
GILZ gene = test: Quantitative RT-PCR analysis of GILZ gene expression in monocyte derived dendritic cells; conditions: added on fifth day of culture; Dex 10^-7 M, IL-10 100 ng/ml, TGFβ 20 ng/ml; detected before and after CD40L
Description: (§1) Immature monocyte derived dendritic cells (iMDDCs) were prepared as described in Palucka et al., J. Immunol., 1998, 160, 4587-4595, apart from minor modifications. Briefly, human monocytes were isolated from the peripheral blood mononucleocell fraction by negative selection, according to the manufacturer's (DYNAL) recommendations. The monocytes (1 to 2×10^5 cells/ml) were cultured for 7 days in the presence of GM-CSF and IL-4 (100 ng/ml and 50 ng/ml, respectively, SCHERING-PLOUGH). The maturation of the dendritic cells (MDDCs) was induced in the presence of CD40L (250 ng/ml; IMMUNEX). Dexamethasone (DEX, SIGMA), recombinant human IL-10 (rhIL-10, DNAX) and TGFβ (R&D) were used at the following respective concentrations: 10^−7 M, 100 ng/ml and 20 ng/ml. For the in vivo experiments, the antigen-presenting cells (APCs) were purified using the monocyte negative selection kit according to the manufacturer's (DYNAL) recommendations.
The expression of the human GILZ gene was analyzed by real time RT-PCR according to the manufacturer's recommendations (Lightcycler™, ROCHE), using the pair of primers described in Berrebi et al. BLOOD, 2003, 101, 729-738 and the human β-actin gene as internal control.

regulatory T lymphocytes = test: Induction of regulatory T cells: sensitized CD4+ T cells added to autologous PBMCs stimulated with PPD or CMV; conditions: CD4+ T sensitized with PPD-loaded dendritic cells treated with dexamethasone and control siRNA
Text: To evaluate the induction of the regulatory T cells (Tregs), immature monocyte-derived dendritic cells treated on the fifth day of culture (D5) with a controlled siRNA or an siRNA targeting GILZ (siRNA GILZ) alone, or else with either dexamethasone (DEX) or IL-10, or not treated, and then treated with the PPD on D7, were cocultured with CD4^+ T cells, as described in example 2. The CD4^+ T cells were purified on the seventh day of DC-CD4^+ T coculture and added in increasing amounts to 10^5 autologous PBMCs stimulated with PPD (1 μg/ml, STATENS SERUM INSTITUTE) or the cytomegalovirus (CMV, 25 μg/ml, BEHRING).
The hypothesis that the GILZ-expressing dendritic cells inhibit the CD4^+ T lymphocyte response by inducing regulatory T lymphocytes during antigen presentation was verified experimentally. Dendritic cells were treated with a control or anti-GILZ siRNA, alone or with dexamethasone, and with PPD (first culture). After washing, the dendritic cells were used to stimulate autologous CD4^+ T lymphocytes. The CD4^+ T lymphocytes of this second culture (sensitized CD4^+ T lymphocytes) were purified and added in increasing amounts to autologous PBMCs stimulated either with PPD or with CMV (third culture). The CD4^+ T lymphocytes sensitized with nontreated dendritic cells or dendritic cells treated with a control siRNA have no effect on the proliferative response of the third culture. […]

[1] = test system: monocyte derived dendritic cells; test: Dendritic cell phenotype by flow cytometry (CD80, CD83, CD86, B7-H1); conditions: treated D5, CD40L D7, phenotype D9
Description: as §1
The dendritic cell phenotype was analyzed by four-color flow cytometry, using the following monoclonal antibodies: phycoerythrin-coupled anti-CD83 (CD83-PE, COULTER); phycoerythrin-coupled anti-CD80 (CD80-PE, BD BIOSCIENCES); anti-B7-H1 (CLINISCIENCES) and phycoerythrin-coupled anti-CD86 (CD86-PE, BD PHARMINGEN). The anti-B7-H1 antibody is detected using a phycoerythrin-coupled secondary antibody (BD PHARMINGEN). […]

CCL3, CCL5 and CXCL8 = test: Chemokine ELISA in dendritic cell culture supernatant after CD40L; conditions: dendritic cells treated before addition of CD40L
Description: as §1
The production of chemokines in the culture supernatant of the dendritic cells was analyzed using ELISA kits (R&D SYSTEMS) according to the manufacturer's instructions.

Molecule | expression of GILZ (RT-PCR) (GILZ gene) | anti-CMV response of the third culture (regulatory T lymphocytes) | expression of B7-H1 [1] | expression of CD80, CD83 and CD86 [1] | CD40L-induced production of the chemokines CCL3, CCL5 and CXCL8 (CCL3, CCL5 and CXCL8)
TGFβ | stimulates the expression of GILZ |  |  |  | 
C[C@@H]1C[C@H]2[C@@H]3CCC4=CC(=O)C=C[C@]4(C)[C@@]3(F)[C@@H](O)C[C@]2(C)[C@@]1(O)C(=O)CO [dexamethasone] |  | no effect |  |  | 
IL-10: recombinant human IL-10 (rhIL-10, DNAX) (protein, UniProt P22301 19-178, looked up) Interleukin-10: SPGQGTQSENSCTHFPGNLPNMLRDLRDAFSRVKTFFQMKDQLDNLLLKESLLEDFKGYLGCQALSEMIQFYLEEVMPQAENQDPDIKAHVNSLGENLKTLRLRLRRCHRFLPCENKSKAVEQVKNAFNKLQEKGIYKAMSEFDIFINYIEAYMTMKIRN | stimulates the expression of GILZ |  | stimulate | inhibit | partially inhibited
